Results taken from the Human Domainome abundance scans (Beltran et al. 2025).
± gives the uncertainty stated by the source.

B1: Max-interacting protein 1, residues 70 to 120; numbered along this chain, P50539 (parent)
chain: STHNELEKNRRAHLRLCLERLKVLIPLGPDCTRHTTLGLLNKAKAHIKKLE

Variants of: B1
Test: abundance fitness (aPCA) (normalised: wild type 0, dead -1); higher = more abundant; growth selection in yeast, the domain comes from the species named
Details: Homo sapiens

| Variant | abundance fitness |
| --- | --- |
| STHNELEKNRRAHLRLCFERLKVLIPLGPDCTRHTTLGLLNKAKAHIKKLE | -0.001 ± 0.15 |
| STHNELEKNRRAHLRLCKERLKVLIPLGPDCTRHTTLGLLNKAKAHIKKLE | -0.515 ± 0.11 |
| STHNELEKNRRAHLRLCLERLKVLIPLGPDCTRHTTLWLLNKAKAHIKKLE | -0.265 ± 0.092 |
| STHNELEKNRRAHLRLCLERLKVLIPLGPDCTRLTTLGLLNKAKAHIKKLE | 0.081 ± 0.084 |
| STHNELEKNRRKHLRLCLERLKVLIPLGPDCTRHTTLGLLNKAKAHIKKLE | -0.048 ± 0.12 |
| STHNELEKNRRAHLRLCLEVLKVLIPLGPDCTRHTTLGLLNKAKAHIKKLE | -0.797 ± 0.13 |
| STHNELEKNRRAHLRLCLERLKVLEPLGPDCTRHTTLGLLNKAKAHIKKLE | -0.384 ± 0.19 |
| STHNELEKNRRAHLRLCLERLKVLNPLGPDCTRHTTLGLLNKAKAHIKKLE | 0.169 ± 0.13 |
| STHNWLEKNRRAHLRLCLERLKVLIPLGPDCTRHTTLGLLNKAKAHIKKLE | -0.435 ± 0.14 |
| STHNELEKNRRAHLRLCLERLKVLIPLGPDCTRHTTLGLLNKAKAPIKKLE | -0.6 ± 0.16 |
| STHNELEKNRRAHLRLCLERLKVLIPLGPDCTRHTTLGLLNKAKTHIKKLE | -0.027 ± 0.14 |
| STHNELEKNRRAHLRLCLERLKVLIPLGPDCTRHTTLGLLNKAKIHIKKLE | 0.043 ± 0.16 |
| STHNELEKNERAHLRLCLERLKVLIPLGPDCTRHTTLGLLNKAKAHIKKLE | -0.71 ± 0.13 |
| STHNELEKNRRAHLRLCLERLKVFIPLGPDCTRHTTLGLLNKAKAHIKKLE | -0.277 ± 0.15 |
| STHNELEKNRRAHLRLCLERLKVIIPLGPDCTRHTTLGLLNKAKAHIKKLE | 0.137 ± 0.23 |
| STHNELEKNRRAHLRLCLERLKVLIPLGPDCTRHTTLGLLNKAKAHIKKLP | -0.089 ± 0.34 |
| STHNELEKNRRAHLRLCLERLKVLIPLGPDCTRHTTLGLLNKAKAHIKKLR | 0.452 ± 0.15 |
| STHNEDEKNRRAHLRLCLERLKVLIPLGPDCTRHTTLGLLNKAKAHIKKLE | -0.066 ± 0.17 |
| STHNEMEKNRRAHLRLCLERLKVLIPLGPDCTRHTTLGLLNKAKAHIKKLE | -0.247 ± 0.13 |
| STHNELEKNRRAHLRLCLERLKVLIPLGPDCTRHTTLGVLNKAKAHIKKLE | -0.257 ± 0.09 |
| STHNELEKNRRAHLRLCLERLSVLIPLGPDCTRHTTLGLLNKAKAHIKKLE | -0.536 ± 0.11 |
| STHNELEKNRRAHLRLCLERLAVLIPLGPDCTRHTTLGLLNKAKAHIKKLE | -0.903 ± 0.15 |
| STHNELEKNRRAHLRLCLERLNVLIPLGPDCTRHTTLGLLNKAKAHIKKLE | -0.572 ± 0.21 |

| Variant | abundance fitness |
| --- | --- |
| STHNELEKNRRAHLRLCLERLKVLIPLGPDCTRHTTLGLLNKAKAHILKLE | -0.802 ± 0.14 |
| STHNELEKNRRAHLRLCLERLKVLIPLGPDCTRHTTLGLLNKAKAHIWKLE | -0.31 ± 0.17 |
| SHHNELEKNRRAHLRLCLERLKVLIPLGPDCTRHTTLGLLNKAKAHIKKLE | -0.1 ± 0.081 |
| STHNELEKNRRAHLRLCLERLKVLIPLGPDGTRHTTLGLLNKAKAHIKKLE | 0.027 ± 0.072 |
| STHNELEKNRRAHLRLCLERLKVLIPLGPDCTRHTTLGLLNSAKAHIKKLE | -0.338 ± 0.094 |
| STHNELEKNRPAHLRLCLERLKVLIPLGPDCTRHTTLGLLNKAKAHIKKLE | -0.105 ± 0.12 |
| STHNELEKNRRAMLRLCLERLKVLIPLGPDCTRHTTLGLLNKAKAHIKKLE | -0.156 ± 0.12 |
| STHNELEKNRRAKLRLCLERLKVLIPLGPDCTRHTTLGLLNKAKAHIKKLE | 0.26 ± 0.14 |
| STHNELEKNRRAHLRLCLERLKVLIPLGPDCTRHTTLGLLNKAKAHIKCLE | -0.62 ± 0.14 |
| STHNELEKNRRAHLRLCLERLKVLIPLGPDCTRHTTLGLLLKAKAHIKKLE | -0.711 ± 0.18 |
| STHNELEKNRRAHLCLCLERLKVLIPLGPDCTRHTTLGLLNKAKAHIKKLE | -0.801 ± 0.23 |
| STHNELEKNRRAHLRLCLERLKVLIPLGPDCTRHTTKGLLNKAKAHIKKLE | 0.073 ± 0.11 |
| STHNELEKNRRAHLRLCLERLKVLIPLIPDCTRHTTLGLLNKAKAHIKKLE | 0.402 ± 0.12 |
| STHNELEKNRRAHLRLCLERLKVLIPLGPDCTRHETLGLLNKAKAHIKKLE | -0.508 ± 0.11 |
| STHNELEKNRRAHLRLCLERLKVLIPLGPDCTRHTKLGLLNKAKAHIKKLE | -0.091 ± 0.15 |
| STHNELEKNRRAHLRLCLERLKVLIPLGPDCTRHTVLGLLNKAKAHIKKLE | 0.308 ± 0.084 |
| STHNELEKNRRAHLRLCLCRLKVLIPLGPDCTRHTTLGLLNKAKAHIKKLE | -0.618 ± 0.13 |
| STHNELEKNRRAHLRLCLHRLKVLIPLGPDCTRHTTLGLLNKAKAHIKKLE | -0.236 ± 0.17 |
| STVNELEKNRRAHLRLCLERLKVLIPLGPDCTRHTTLGLLNKAKAHIKKLE | -0.053 ± 0.11 |
| STGNELEKNRRAHLRLCLERLKVLIPLGPDCTRHTTLGLLNKAKAHIKKLE | 0.197 ± 0.08 |
| TTHNELEKNRRAHLRLCLERLKVLIPLGPDCTRHTTLGLLNKAKAHIKKLE | -0.577 ± 0.34 |
| HTHNELEKNRRAHLRLCLERLKVLIPLGPDCTRHTTLGLLNKAKAHIKKLE | -0.285 ± 0.31 |
